Holding throughout (settings): protein: recombinant; tags: His6 (pET28); chain copies: 2; label: DIG-ddUTP 3' (terminal transferase); blunt
One series addresses CRP (Escherichia coli, UniProt P0ACJ8 1-210). The experiment in a line: EMSA; cAMP (200 pmol in 20 ul); Roche binding buffer (composition not given), 15 min, room temperature; FadR: 0.1 pmol probe in 10 ul, 0-10 pmol protein, 7% native PAGE; CRP: 0.6 pmol probe in 20 ul (legend; Methods say 0.1 or 0.2 pmol), 5-20 pmol protein, 6.5% native PAGE. (In general: In EMSA bound probe runs differently from free probe, usually more slowly.)

For series [1], the target named is T1, FadR (Escherichia coli, UniProt P0A8V6 1-239). In words: EMSA; essentially complete binding by 50 nM FadR; Roche binding buffer (composition not given), 15 min, room temperature; FadR: 0.1 pmol probe in 10 ul, 0-10 pmol protein, 7% native PAGE; CRP: 0.6 pmol probe in 20 ul (legend; Methods say 0.1 or 0.2 pmol), 5-20 pmol protein, 6.5% native PAGE.
The target in series [2] is T1, FadR. The experiment in a line: EMSA; affinity comparable to the fadL sites; Roche binding buffer (composition not given), 15 min, room temperature; FadR: 0.1 pmol probe in 10 ul, 0-10 pmol protein, 7% native PAGE; CRP: 0.6 pmol probe in 20 ul (legend; Methods say 0.1 or 0.2 pmol), 5-20 pmol protein, 6.5% native PAGE.

Chain of CRP (P0ACJ8 whole entry): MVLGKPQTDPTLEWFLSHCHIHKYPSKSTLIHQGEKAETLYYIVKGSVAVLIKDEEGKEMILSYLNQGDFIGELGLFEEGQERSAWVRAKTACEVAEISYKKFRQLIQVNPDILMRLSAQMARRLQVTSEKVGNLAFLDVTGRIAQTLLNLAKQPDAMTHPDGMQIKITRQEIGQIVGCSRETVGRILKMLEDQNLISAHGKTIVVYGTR
T1 sequence (P0A8V6 whole entry): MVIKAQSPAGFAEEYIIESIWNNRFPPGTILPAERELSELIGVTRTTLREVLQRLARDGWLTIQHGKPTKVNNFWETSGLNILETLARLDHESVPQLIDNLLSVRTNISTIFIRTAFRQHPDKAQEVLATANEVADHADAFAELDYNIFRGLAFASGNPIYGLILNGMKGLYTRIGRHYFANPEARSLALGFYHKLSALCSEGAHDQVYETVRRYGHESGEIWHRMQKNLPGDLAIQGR

B1: fadH CRP site 1 (probe 1) (dsDNA)
DNA 1: GTAACCTGGATAAAACGCGACAAGCGTCGCATCCGGCGTTATCACCGG
DNA 2: CCGGTGATAACGCCGGATGCGACGCTTGTCGCGTTTTATCCAGGTTAC
For the molecule B1, the binding result with CRP is “binds”.

B2: fadL FadR site 2 (dsDNA)
DNA 1: CTCTCGCCACTGGTCTGATTTCTAAGATGTACCTC
DNA 2: GAGGTACATCTTAGAAATCAGACCAGTGGCGAGAG
In the case of B2, the binding result with FadR [1] is “binds”.

B3: fadH CRP site 2 (probe 2) (dsDNA)
DNA 1: CACCGGGCGTATTCTTTTTGAATCCCATCACAAACCCCGCACTCC
DNA 2: GGAGTGCGGGGTTTGTGATGGGATTCAAAAAGAATACGCCCGGTG
As for B3, the binding result with CRP was “binds”.

B4: fadD FadR site 1 (dsDNA)
DNA 1: GTAATTATCAAGCTGGTATGATGAGTTAATATTATG
DNA 2: CATAATATTAACTCATCATACCAGCTTGATAATTAC
For B4, in the series with FadR [2], the binding result was “binds”.

B5: fadL FadR site 1 (dsDNA)
DNA 1: GCAACATTCCAGCTGGTCCGACCTATACTCTCGCC
DNA 2: GGCGAGAGTATAGGTCGGACCAGCTGGAATGTTGC
As to B5, in the series with FadR [1], the binding result is “binds”.

B6: fadD CRP site (dsDNA)
DNA 1: GTAAAGATAAAAATAAATAGTGACGCGCTTCGCAACCTTTTCGTTGGG
DNA 2: CCCAACGAAAAGGTTGCGAAGCGCGTCACTATTTATTTTTATCTTTAC
With B6, in the series with CRP, the binding result was “binds”.

B7: fadL CRP site 2 (probe 2) (dsDNA)
DNA 1: CCCTACACTTCGCGCTCCTGTTACAGCACGTAACATAGTTTGTATAAAAATAAATC
DNA 2: GATTTATTTTTATACAAACTATGTTACGTGCTGTAACAGGAGCGCGAAGTGTAGGG
For the molecule B7, in the series with CRP, the binding result is listed as “no binding”.
